According to patent US20230340069A1:

How the values were obtained:
[1] = target: Polyclonal human IgG Gammanorm (human); assay: Fc binding protein coupled to Praesto Pure45 agarose beads; polyclonal human IgG Gammanorm (2.2 mg/ml) loaded; mass of hIgG injected at 10% breakthrough, 6 min residence time
human IgG1 = assay: ELISA, IgG1 antibody coated on plate, detection with Strep-Tactin-HRP

Row | Substance | dynamic binding capacity [1] [mg/mL] | Kd (human IgG1) [nM]
1 | R PROTEIN A | 37.4 | 
2 | Protein A domain Z |  | 3.4
